The text below walks through data of publication PMC6748439, “Structural Insights into Curli CsgA Cross-β Fibril Architecture Inspire Repurposing of Anti-amyloid Compounds as Anti-biofilm Agents” (PLoS Pathogens, 2019).

The target of data set [1] is CsgA, the major curli subunit (recombinant, C-terminal His6-tag) (Escherichia coli) (UniProt P28307). The data set is described as follows: SEC-MALS; freshly purified CsgA concentrated to 1.8 mg/ml, Superdex 75 10/300, miniDAWN TREOS; hexamer beside a majority of monomer. (In general: SEC sorts molecules by how far they enter the pores of the column.)
Data set [2] deals with the molecule itself. Description: crystal structure; peptides with free (unmodified) termini, hanging drop, 293 K; micro-crystals, data collected at 100 K; LNIYQY and TASNSS crystals grown in a mixture with TAIVVQ of CsgB, which was not present in the crystals.

With “CsgA, the major curli subunit (recombinant, C-terminal His6-tag) (from UniProt P28307 21-151) (natural protein)”, in data set [1], the stoichiometry N was 6.

B1: CsgA segment 137VTQVGF142 (R5 repeat) (peptide)
peptide: VTQVGF
notes: Unmodified termini for crystallography; in the seeding assay Ac-VTQVGF-NH2, in the ThT assay with D-peptides capped at the C-terminus; source: synthetic peptide, bought: GL Biochem (Shanghai) Ltd
Consider B1, for which the binding result in data set [2] is recorded as “binds”.

B2: CsgA segment 45LNIYQY50 (R1 repeat) (peptide)
peptide: LNIYQY
notes: CsgA residues 45-50 (R1 repeat), numbered on UniProt P28307; Unmodified termini for crystallography; in the seeding assay Ac-LNIYQY-NH2, in the ThT assay with D-peptides capped at the C-terminus; also called R1 segment 45LNIYQY50; source: synthetic peptide, bought: GL Biochem (Shanghai) Ltd
On to B2, for which, in data set [2], the binding result was “binds”.

B3: CsgA segment 129TASNSS134 (R4-R5 loop) (peptide)
peptide: TASNSS
notes: Unmodified termini for crystallography; source: synthetic peptide, bought: GL Biochem (Shanghai) Ltd
B3: in data set [2], the binding result is given as “binds”.

B4: CsgA segment 47IYQYGG52 (R1 repeat) (peptide)
peptide: IYQYGG
notes: CsgA residues 47-52 (R1 repeat), numbered on UniProt P28307; Unmodified termini for crystallography; in the seeding assay Ac-IYQYGG-NH2; also called R1 segment 47IYQYGG52; source: synthetic peptide, bought: GL Biochem (Shanghai) Ltd
For the molecule B4, in data set [2], the binding result is given as “binds”.

As a reminder, the stoichiometry N is the number of molecules, sites or subunits per partner or assembly.
